According to the DeepSol protein solubility set:

Assay: soluble on expression in E. coli; label from the status in PepcDB or PDB records

Row | Sequence | soluble on expression in E. coli
1 | TELKPLLIELGTEELPVNALPNLSRAFFEGVLAGLERRGIVVDHGEAKSLSTPRRLAVLLTAVAVEQPKQYRELFGPYLNTAFDTEGKPTKALEGFAAKCGVNWRTLERIRDTKGERFVHRVVVPGERTDALLPGILTEAIAGMPIPKPMRWGAHEYLFARPVHWLVMLFGQDVVEAEIMGVKAGRISRGHRFLYDKPVSLSGPQNYIDVLQAAYVLVDPAARRARIVAEIEAVARQVGGVARITEDNVAQVVNLVEWPSAVLCSFERVFLEVPQEALIQTMEVNQKFFPVLDSLGKLTEKFIGIANIESNDVAEVAKGYERVIRPRFSDAKFFFNEDLKQGLKAMGERLRTVTYHAKLGTLADKVARVLVLAEAIAPQIGVDPLLARRVALLSKNDLQSRMVNEFPELQGVAGHHYALISGELPEVAMAIEDAYRPRFSGDEIARSPLGKVLGLAERLDTLACGFAVGMKPTGNKDPFGLRRNALGLARTIIESRFDLDLKVLLDQASDWVAFATTIEQERHAQESVKQSKKEAAVKHSVPQVSDEKSARIEELYDFIVERLRGYYADKGIPTTHFNAVAELKPVS | not soluble
2 | THANIQGLVKHVDYMAFSDQDTFLSVSNYAFDAFTFDFYASMLNAARLIIADEHTLLDTERLTDLILQENVNVMFATTALFNLLTDAGEDWMKGLRCILFGGERASVPHVRKALRIMGPGKLINCYGPTEGTVFATAHVVHDLPDSISSLPIGKPISN | not soluble
3 | TISQRPYRDRVIHLLALKAYKKPELLARLQKDGVNQKDKNSLGAILQQVANLNSKDLSYTLKDYVFKELQRDWPGYSEIDRRSLESVLSRKLN | soluble
4 | TIVDLEDNVLVIGFGRFSQIVCQTLLIRGISVSVIDRNIENIRAAAKFGFKVYYGDGIRLDVLRAAGIEKAKCVVLGINDTQRIEHIVSQMKEAYPNLPILTRTYDRKTTVSLIKQDVDFIVRETFESAITLSRATLMKLGID | not soluble
5 | TKDLPIHACSYCGIHDPACVVYCNTSKKWFCNGRGNTSGSHIVNHLVRAKCKEVTLHKDGPLGETVLECYNCGCRNVFLLGFIPAKADSVVVLLCRQPCASQSSLKDINWDSSQWQPLIQDRCFLSWLVKIPSEQEQLRARQITAQQINKLEELWKENPSATLEDLEKPGVDEEPQHVLLRYEDAYQYQNIFGPLVKLEADYDKKLKESQTQDNITVRWDLGLNKKRIAYFTLPKTDSDMRLMQGDEICLRYKGDLAPLWKGIGHVIKVPDNYGDEIAIELRSSVGAPVEVTHNFQVDFVWKSTSFDRMQSALKTFAVDETSVSGYIYHKLLGHEVEDVIIKCQLPKRFTAQGLPDLNHSQVYAVKTVLQRPLSLIQGPPGTGKTVTSATIVYHLARQGNGPVLVCAPSNIAVDQLTEKIHQTGLKVVRLCAKSREAIDSPVSFLALHNQIRNMDSMPELQKLQQLKDETGELSSADEKRYRALKRTAERELLMNADVICCTCVGAGDPRLAKMQFRSILIDESTQATEPECMVPVVLGAKQLILVGDHCQLGPVVMCKKAAKAGLSQSLFERLVVLGIRPIRLQVQYRMHPALSAFPSNIFYEGSLQNGVTAADRVKKGFDFQWPQPDKPMFFYVTQGQEEIASSGTSYLNRTEAANVEKITTKLLKAGAKPDQIGIITPYEGQRSYLVQYMQFSGSLHTKLYQEVEIASVDAFQGREKDFIILSCVRANEHQGIGFLNDPRRLNVALTRARYGVIIVGNPKALSKQPLWNHLLNYYKEQKVLVEGPLNNLRESLMQFS | soluble
6 | TKEHRAAARKIAGESFVLLKNEGLSPTLAPVLPLSPTGTIAVIGPLANTRSNMPGTWSVAAVLDKSPSLVEGLTEWVGNQGKILYAKGSNLIGDAAYEERATMFGRSLNRDNRTDQQLLDEALKIASQADVIVAALGESSEMSGESSSRTNLNLPDVQHTLLEALLKTGKPVVLVLFTGRPLVLNWEQEHVPAILNVWFGGSEAGPAIGDVLFGAVNPGGKLTMTFPKSVGQIPLYYAHKNTGRPLKEGKWFEKFRSNYLDVDNDALYPFGYGLSYTTF | not soluble
7 | TLANNRVRLLVNGEASFEAMFKAISAARQVILVQFFIVRDDALGQRLQQLLLERAANGVEVFFLYDAIGSHALPHRYVERLRQGGVQMHGFSTGSGMLNRFQVNFRNHRKVVVVDGECGFVGGHNVGVEYLGEKPPLAPWRDTHMELRGPAVACLQESFAEDWYWATHSLPPLILPPQYDSEGALCQVVASGPA | not soluble
8 | TMEIPINRTYSCFLEGPEAPKTPACQAAKQAGGTQAMYDWNGINQNPSGDNHQAVVPDGTLCGGGKAEFKGFNLAREDWRTTNIVPDANGNYEFIYKATAPHATKYFKFYVTKNGWNPTQALKWSDLELFGTVNGNPQQDAGKRYHMTLKLPQGKTGKHIIFNVWKRSDSEEAFYSCSDVNFGG | not soluble
9 | TPPSGSGNWESLFNGLYRLQQRQRRKRKELTNLIRRFRNGAESLPDAVVVFRAEGNIVWCNRLAQHLLGFHWPEDSGQPISNLIRTPDFIKYLNKKDFSEPLEMRSPLNVERMLELRIVPYTEGEHLMVVRD | not soluble
10 | TRGLNFSVEFTGGTVMEVQYQQGADVNKMRERLDTLKIGDVQVQALGTNKHIMIRLPNKEGVTSAQLSNQVMDLLKKDSPDVTLRQVEFIGPQVGEE | not soluble
11 | TTIVSVRRNGHVVIAGDGQATLGNTVMKGNVKKVRRLYNDKVIAGFAGGTADAFTLFELFERKLEMHQGHLVKAAVELAKDWRTDRMLRKLEALLAVADETASLIITGNGDVVQPENDLIAIGSGGPYAQAAARALLENTELSAREIAEKALDIAGDICIYTNHFHTIEELSYKAEFHHHHHH | soluble
12 | TVQCKVTLLDGTEYSCDLEKHAKGQVLFDKVCEHLNLLEKDYFGLLFQESPEQKNWLDPAKEIKRQLRNLPWLFTFNVK | not soluble
13 | VAERNSLAKTVYAIFVPLREGESQIAAEITPMRSERFGVDVLPGHPALSQIEDLMSDSWQSALGRQTGPFRRIHWAGQLAHAMERDDRYDVIFFDVGPSLGPFNRTVLLGCDAFVTPTATDLFSFHAFGNLARWFDAWVTQYAEIHEGNMAEWKKYSADVEAKTRPLRLGGFDGEGLRYLGYTTLEYVKRRANGQEQLVGAFERFRGRFAAEAERISNSLSKHSNSTLLGHVPHMHSMPATAQDVHAPIMELSSSDRVRGAQINQRNAYAEKINSVAANVYKALFPNE | not soluble
14 | VCLEFQDCGVGLNAAQFKQLLISAVKDLFGEVDAALPLDILTYEEKTLSAILRICSSGLVKLWSSLTLLGSYKGKKCAFRVIQVSPFLLALSGNSRELVLD | not soluble
15 | VDEPESMVNLAFVKNDSYEKGPDSVVVHVYVKEICRDTSRVLFREQDFTLIFQTRDGNFLRLHPGCGPHTTFRWQVKLRNLIEPEQCTFCFTASRIDICLRKRQSQRWGGLEAPAARVGGA | soluble
16 | VETISFSFSEFEPGNNDLTLQGAAIITQSGVLQLTKINQNGMPAWDSTGRTLYTKPVHIWDMTTGTVASFETRFSFSIEQPYTRPLPADGLVFFMGPTKSKPAQGYGYLGVFNNSKQDNSYQTLAVEFDTFSNPWDPPQVPHIGIDVNSIRSIKTQPFQLDNGQVANVVIKYDASSKILLAVLVYPSSGAIYTIAEIVDVKQVLPEWVDVGLSGATGAQRDAAETHDVYSWSFHASLPETND | soluble
17 | VEVLLGGDDGSLAFLPGDFSVASGEEIVFCNNAGFPHNVVFDEDEIPSGVDAAKISMSEEDLLNAPGECYKVTLTEKGTYKFYCSPHQGAGMVGKVTVN | soluble
18 | VGKMTPDFLGSLSTTLSWKNLSLHIATDMRFGGLVASYSNLYGTQAGWIKSSLKWRDPEHGGLSWTSQYGDSKGISYGDGVIPDGVFKNGTFATLVDGTKMDVSGMSYKQLVAEGKLEPTHAGTYHVNRAAWGQNTIFDTWVHELNYIALREITLSYRFPKSVASKFGAQGLGLSFSARNLGYLYNSLPNHLNPESVRGNTASEFRIRGYEPYTANYMMTINVDF | not soluble
19 | VGLIEKQKVQDSDFIEHKEVGLLISHDGIYFKFEPEQLAKHLVEFKSEQDQLIFGGVVQNSDYFFMVTSLGNIITVPIYKTLSNTKTKMNELLAKKPILMEDEKLVLAGIVNPDKME | soluble
20 | VHVEDALTYLDQVKIRFGSDPATYNGFLEIMKEFKSQSIDTPGVIRRVSQLFHEHPDLIVGFNAFLP | soluble
21 | VKKNGLGEIKSIYIDDNVSGSGFERRGIYELKRDVMEGKINLLVLKDLSRLGRNNAKTLLFLDFLEENGVRVVTFDGRYDSLKDNDIVGIETWFNERYILDISRKIRANLRFKIQKGEYIGHAPFGYEKSPYEKNRLIVNEEEAGIVRRIYSLYKEGYGYSYIAGILNSEGVKSPSNGRWNPTAIRRILLNRVYTGDTVQGVSEKISFKSKKTRRLPKERWVITENTHEPIVSKEEYEEIQRIRNNKNARPVPHKGIIHVFRGSIFCGGCGSVMFARKRHNRPMSYICSSYAKEGRTACTSHSIREKDLCEVVLDDVAKLLDDENMVNKILQKIDLAGAAEDYQTLREKLLKQMEAKQKQQEILYQDRLENKISESLFLRMNNRLENRISEIKREIAQLDLRKSEFVTSEEKIAKLKNYITNNGITNEIVKIVINRIIVFDKGDNYLEEKWNLNLSQKEKRYIELYGAVLIEYGF | soluble
22 | VLEQAVYNARVMDIRDIEKESQEQAPEVEMVSELGSDVVVLDIRSAEEEDEKPLELDGVEVTHIPFFKLATKFGDLDQSKEYLLYCERGVMSRLQALLLIENGYKNVKVYRP | not soluble
23 | VLIAGYLTDWRIMTTAQLRPIAPQKLHFSENLSVWVSDAQCRLVVSQPALDPTLWNTYLQGALRAYSKHGVECTLDLDAISDGSDTQLFFAAIDIGGDVVGGARVIGPLRSADDSHAVVEWAGNPGLSAVRKMINDRAPFGVVEVKSGWVNSDAQRSDAIAAALARALPLSMSLLGVQFVMGTAAAHALDRWRSSGGVIAARIPAAAYPDERYRTKMIWWDRRTLANHAEPKQLSRMLVESRKLLRDVEALSATTAATAGAEQ | not soluble
24 | VPITPLLHESVARFAATGADITTRAEPDLFVSIDPDHLRRILTAVLDNAITHGDGEIAVTAHARDGAVDIGVRDHGPGFADHFLPVAFDRFTRADTARGGRGSGLGLAIVAALTTTHGGHANATNHPDGGAELRITLPTPRPPFHEELPRITSSDTKDPNREHDTSDQ | not soluble
25 | VRAPGVRAADGAGRVVLYLHGGAFVMCGPNSHSRIVNALSGFAESPVLIVDYRLIPKHSLGMALDDCHDAYQWLRARGYRPEQIVLAGDSAGGYLALALAQRLQCDDEKPAAIVAISPLLQLAKGPKQDHPNIGTDAMFPARAFDALAAWVRAAAAKNMVDGRPEDLYEPLDHIESSLPPTLIHVSGSEVLLHDAQLGAGKLAAAGVCAEVRVWPGQAHLFQLATPLVPEATRSLRQIGQFIRDATADSSLSPVHRSRYVAGSPRAASRGAFGQSPI | not soluble
26 | VRILATVAATAAAVAALITPAHADGPLGVKGDTLTLPLADAITALPVAEESRAGYQRSAFKHWVDADKDGCNTRSEVLKAEAVVAPEQGTRCKLSGGQWYSAYSNTYVNSASALDLDHLVPLAEGWDSGASAWTAKEREAYANDLGDDRSLIAVTAATNRSKADQDPAEWLPPYEPYHCQYLTDWIATKLRWQLTVDQAERDTLTQATTSCPNLPVEVTLAR | soluble
27 | VSRDENSWLIDGATPLEEVTRVLDIAYFPDEENYETISGFMMYMLRKIPKKTDSVVYGKYKFEVIDTENFKIDQILVSLVKEQE | not soluble
